The record followed here is patent US20220267464A1 (Hoffmann-La Roche, published 2022).

Test [1] concerns the target T1, human CEA (CEACAM5), form in the assay not stated (human, UniProt P06731 35-685, limits assumed).
T1 sequence: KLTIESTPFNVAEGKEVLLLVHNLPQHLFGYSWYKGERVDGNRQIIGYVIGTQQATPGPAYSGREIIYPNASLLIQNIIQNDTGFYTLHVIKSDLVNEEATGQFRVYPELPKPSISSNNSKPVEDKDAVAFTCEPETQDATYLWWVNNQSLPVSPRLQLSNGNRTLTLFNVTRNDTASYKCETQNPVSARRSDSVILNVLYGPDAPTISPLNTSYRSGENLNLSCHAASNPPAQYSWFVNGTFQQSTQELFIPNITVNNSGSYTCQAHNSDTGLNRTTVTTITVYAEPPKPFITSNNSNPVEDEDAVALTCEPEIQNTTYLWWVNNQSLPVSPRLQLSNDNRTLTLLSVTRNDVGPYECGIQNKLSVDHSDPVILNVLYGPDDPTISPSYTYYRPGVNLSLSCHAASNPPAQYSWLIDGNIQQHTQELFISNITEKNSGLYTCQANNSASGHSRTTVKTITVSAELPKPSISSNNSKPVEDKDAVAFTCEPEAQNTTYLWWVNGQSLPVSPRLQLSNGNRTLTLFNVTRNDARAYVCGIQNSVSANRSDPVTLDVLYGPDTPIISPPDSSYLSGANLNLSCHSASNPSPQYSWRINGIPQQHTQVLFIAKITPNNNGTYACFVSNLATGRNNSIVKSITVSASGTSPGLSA
Description: SPR. On the technique in general: SPR reads the build-up and loss of mass on a sensor chip optically.

Test [2] has as its target T2, NA(B2)A-avi-His (human, biotin on the avi tag).
T2 construct: chimeric soluble control antigen without the CEACAM5 A2 domain
T2 chain: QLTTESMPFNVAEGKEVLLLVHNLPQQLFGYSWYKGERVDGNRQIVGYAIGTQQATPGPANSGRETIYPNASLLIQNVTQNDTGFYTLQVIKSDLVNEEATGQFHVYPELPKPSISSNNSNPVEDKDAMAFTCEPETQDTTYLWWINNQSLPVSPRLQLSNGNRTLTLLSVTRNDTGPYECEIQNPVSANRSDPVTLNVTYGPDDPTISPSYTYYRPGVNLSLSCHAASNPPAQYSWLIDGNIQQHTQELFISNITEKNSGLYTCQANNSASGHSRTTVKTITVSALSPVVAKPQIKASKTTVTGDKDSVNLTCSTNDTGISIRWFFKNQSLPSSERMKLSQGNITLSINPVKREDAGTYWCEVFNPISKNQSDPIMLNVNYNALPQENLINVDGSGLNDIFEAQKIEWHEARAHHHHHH
Briefly: SPR (ProteOn), Fab in bacterial supernatant, 2000 RU antigen. The source says: (§1) For this experiment, about 2000, 1000, and 500 RU of biotinylated N(A2B2)A-avi-His were immobilized on 3 channels using a Streptavidin-coated NLC chip in vertical orientation. As a control for non-specific binding, 2000 RU of biotinylated NA(B2)A-avi-His protein was immobilized on channel 4. For the off-rate analysis of the identified ELISA-positive clones, injection direction was changed to horizontal orientation. Before injection, each Fab-containing bacterial supernatant was filtered and 3-fold diluted with PBS. The association time was 100 s at 100 μl/minute and dissociation times were either 600 or 1200 s. Bacterial supernatant without Fab fragment was used for referencing. Regeneration was performed with 10 mM glycine pH 1.5 for 35 s at 50 μl/min (vertical orientation).
(§2) Dissociation rate constants (koff) were calculated using a simple one-to-one Langmuir binding model in ProteOn Manager v3.1 software by simultaneously fitting the sensorgrams. […] Shortlisted clones were re-evaluated in an additional SPR experiments under the same conditions. […] Bacterial supernatant without Fab fragment was used for referencing.

Test [3] addresses T3, hu N(A2-B2)A-avi-His (human, biotin on the avi tag where used biotinylated).
T3 construct: chimeric soluble antigen; also called hu N(A2-B2)A-avi-His B; human CEA (A2 domain)
T3 chain: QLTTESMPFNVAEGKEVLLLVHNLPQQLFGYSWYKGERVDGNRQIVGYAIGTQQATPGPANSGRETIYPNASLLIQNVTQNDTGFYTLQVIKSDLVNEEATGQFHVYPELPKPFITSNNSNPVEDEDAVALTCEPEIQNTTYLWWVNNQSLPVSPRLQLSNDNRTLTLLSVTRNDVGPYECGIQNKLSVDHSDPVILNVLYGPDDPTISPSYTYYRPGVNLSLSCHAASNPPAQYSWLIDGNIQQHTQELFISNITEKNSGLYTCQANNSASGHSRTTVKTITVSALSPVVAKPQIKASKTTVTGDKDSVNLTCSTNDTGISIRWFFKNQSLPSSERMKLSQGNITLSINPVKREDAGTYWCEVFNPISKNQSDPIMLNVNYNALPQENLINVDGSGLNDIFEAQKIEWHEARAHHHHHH
Description: SPR (ProteOn XPR36), purified Fab, biotinylated antigen on NLC chip. The protocol:
Affinity (KD) of purified Fab fragments was measured by surface plasmon resonance using a Proteon XPR36 machine using the same setup as described before.
About 2000, 1000, 500, and 250 RU of biotinylated N(A2B2)A-avi-His were immobilized on 4 channels of a Streptavidin-coated NLC chip in vertical orientation. As a control for non-specific binding, 2000 RU of biotinylated NA(B2)A-avi-His protein was immobilized on channel 5. For the determination of the affinity (KD) of the purified clones, injection direction was changed to horizontal orientation. Two-fold dilution series of purified Fab fragments (varying concentration ranges between 100 and 3 nM) were injected simultaneously at 100 μl/min along separate channels 1-5, with association times of 100 s, and dissociation times of 1200 s. Buffer (PBST) was injected along the sixth channel to provide an “in-line” blank for referencing. Regeneration was performed with 10 mM glycine pH 1.5 for 35 s at 50 μl/min (vertical orientation).
Association rate constants (kon) and dissociation rate constants (koff) were calculated using a simple one-to-one Langmuir binding model in ProteOn Manager v3.1 software by simultaneously fitting the association and dissociation sensorgrams. The equilibrium dissociation constant (KD) was calculated as the ratio koff/kon.

For test [4], the target named is T3, hu N(A2-B2)A-avi-His. Briefly: SPR (ProteOn XPR36), Fab in bacterial supernatant, biotinylated antigen on NLC chip.
Description: as §1, §2

B1: A5H1EL1D humanized anti-CEA antibody (format in the assay not stated) (antibody, V domains shown)
VH: EVQLLESGGGLVQPGGSLRLSCAASGFTFTDYYMNWVRQAPGKGLEWLGFIGNKANAYTTEYSASVKGRFTISRDKSKNTLYLQMNSLRAEDTATYYCTRDRGLRFYFDYWGQGTTVTVSS
VL: EIVLTQSPATLSLSPGERATLSCRASSSVTYIHWYQQKPGQAPRSWIYATSNLASGIPARFSGSGSGTDFTLTISSLEPEDFAVYYCQHWSSKPPTFGQGTKLEIK
notes: also called huA5B7; 3-23A5-1E / A5-L1D
Take B1: the Kd in test [1] is about 2.5 nM.

B2: P006.038 Fab (Fab, V domains shown)
VH: EVQLLESGGGLVQPGGSLRLSCAASGFTFTDYYMNWVRQAPGKGLEWLGFIGNKANAYTTEYSASVKGRFTISRDKSKNTLYLQMNSLRAEDTATYYCTRDRGIRFGFDYWGQGTTVTVSS
VL: EIVLTQSPATLSLSPGERATLSCRASSSVTYIHWYQQKPGQAPRSWIYATSNLASGIPARFSGSGSGTDFTLTISSLEPEDFAVYYCQHWSSVPPTFGQGTKLEIK
notes: Fab from E. coli (supernatant or IMAC-purified); Flag tag; also called CEA (P006.038)
Turning to B2, the binding result in test [2] is “no binding”. In test [3], the affinity, expressed as Kd, was 0.25 nM; the koff is 5.78e-05 s⁻¹; the kon worked out at 225000 M⁻¹ s⁻¹. This molecule returned a koff in test [4] of 7.41e-05 s⁻¹.

B3: A5B7 parental murine anti-CEA antibody (antibody, V domains shown)
VH: EVKLVESGGGLVQPGGSLRLSCATSGFTFTDYYMNWVRQPPGKALEWLGFIGNKANGYTTEYSASVKGRFTISRDKSQSILYLQMNTLRAEDSATYYCTRDRGLRFYFDYWGQGTTLTVSS
VL: QTVLSQSPAILSASPGEKVTMTCRASSSVTYIHWYQQKPGSSPKSWIYATSNLASGVPARFSGSGSGTSYSLTISRVEAEDAATYYCQHWSSKPPTFGGGTKLEIK
notes: also called parental chimeric antibody
B3 registered a dissociation constant (Kd) in test [1] of about 0.8 nM.

What is called Kd is the free concentration of one partner at which half of the binding sites on the other are occupied at equilibrium, for simple one-to-one binding. A high value points to a looser complex. As a reminder, the koff is the first-order rate constant of dissociation. A high value points to a short-lived complex. What is called kon is a measure of how fast the partners come together.
